Source: IntAct's records for PubMed 11438675

B1: Nibrin (Homo sapiens), O60934 (parent)
chain: MWKLLPAAGPAGGEPYRLLTGVEYVVGRKNCAILIENDQSISRNHAVLTANFSVTNLSQTDEIPVLTLKDNSKYGTFVNEEKMQNGFSRTLKSGDGITFGVFGSKFRIEYEPLVACSSCLDVSGKTALNQAILQLGGFTVNNWTEECTHLVMVSVKVTIKTICALICGRPIVKPEYFTEFLKAVESKKQPPQIESFYPPLDEPSIGSKNVDLSGRQERKQIFKGKTFIFLNAKQHKKLSSAVVFGGGEARLITEENEEEHNFFLAPGTCVVDTGITNSQTLIPDCQKKWIQSIMDMLQRQGLRPIPEAEIGLAVIFMTTKNYCDPQGHPSTGLKTTTPGPSLSQGVSVDEKLMPSAPVNTTTYVADTESEQADTWDLSERPKEIKVSKMEQKFRMLSQDAPTVKESCKTSSNNNSMVSNTLAKMRIPNYQLSPTKLPSINKSKDRASQQQQTNSIRNYFQPSTKKRERDEENQEMSSCKSARIETSCSLLEQTQPATPSLWKNKEQHLSENEPVDTNSDNNLFTDTDLKSIVKNSASKSHAAEKLRSNKKREMDDVAIEDEVLEQLFKDTKPELEIDVKVQKQEEDVNVRKRPRMDIETNDTFSDEAVPESSKISQENEIGKKRELKEDSLWSAKEISNNDKLQDDSEMLPKKLLLTEFRSLVIKNSTSRNPSGINDDYGQLKNFKKFKKVTYPGAGKLPHIIGGSDLIAHHARKNTELEEWLRQEMEVQNQHAKEESLADDLFRYNPYLKRRR

Variants of: B1
Conditions: with chk2_human CHEK2, O96017
Sequence of chk2_human CHEK2, O96017 (O96017 whole entry): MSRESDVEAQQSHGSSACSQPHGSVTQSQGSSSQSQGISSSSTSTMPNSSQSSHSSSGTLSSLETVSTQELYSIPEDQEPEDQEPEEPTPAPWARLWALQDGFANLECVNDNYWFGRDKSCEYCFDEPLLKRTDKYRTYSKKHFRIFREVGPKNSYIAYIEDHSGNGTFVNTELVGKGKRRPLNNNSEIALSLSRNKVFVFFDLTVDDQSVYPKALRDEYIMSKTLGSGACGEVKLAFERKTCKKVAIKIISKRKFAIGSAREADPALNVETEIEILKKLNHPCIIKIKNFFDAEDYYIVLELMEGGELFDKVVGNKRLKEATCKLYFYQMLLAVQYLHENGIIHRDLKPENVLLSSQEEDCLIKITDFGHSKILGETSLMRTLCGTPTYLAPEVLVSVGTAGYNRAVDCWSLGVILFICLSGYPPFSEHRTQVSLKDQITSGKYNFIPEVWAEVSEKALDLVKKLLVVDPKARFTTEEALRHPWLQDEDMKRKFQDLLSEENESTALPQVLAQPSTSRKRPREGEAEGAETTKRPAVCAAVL

Variant | effect of a mutation on the interaction
S343A | decreasing interaction
